Results from article PMC3212559, “Large-Scale Protein-Protein Interaction Analysis in Arabidopsis Mesophyll Protoplasts by Split Firefly Luciferase Complementation” (PLoS ONE, 2011).

Tests used:
Assay in all cases: split reporter (BiFC, NanoBiT); SFLC in living Arabidopsis mesophyll protoplasts: Aux/IAA-FLucN or MYB30-FLucN co-expressed with ARFCTD-FLucC or Aux/IAA-FLucC for 6 hr; 10 µg of each construct, 2×10^4 cells, 96-well plate, D-luciferin; relative activity standardised against ARF5CTD-FLucC + IAA28-FLucN
Conditions in all cases: partners not purified
[1] = molecular target: T1, ARF10 C-terminal domain (CTD)-FLucC (Arabidopsis, UniProt Q9SKN5 580-693)
T1 construct: Arabidopsis auxin response factor 10, C-terminal dimerization domain (CTD); In the ARF-ARF tests the same CTD stood both as ARFCTD-FLucC and as ARFCTD-FLucN; one molecule for both; also called ARF10CTD-FLucC; ARFCTD-FLucC; source: Arabidopsis mesophyll protoplasts, transfected, in living cells (SFLC) and in lysate (co-IP); not shown: FLucC (firefly luciferase aa 394-550)
T1 sequence (looked up): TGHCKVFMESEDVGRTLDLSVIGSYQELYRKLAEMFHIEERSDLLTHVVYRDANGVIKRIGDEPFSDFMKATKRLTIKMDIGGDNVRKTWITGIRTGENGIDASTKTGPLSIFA

[2] = molecular target: T2, IAA18-FLucC (Arabidopsis, UniProt O24408 1-267)
T2 construct: Arabidopsis Aux/IAA protein IAA18; also called Aux/IAA-FLucC; source: Arabidopsis mesophyll protoplasts, transfected, in living cells; not shown: FLucC (firefly luciferase aa 394-550)
T2 sequence (looked up): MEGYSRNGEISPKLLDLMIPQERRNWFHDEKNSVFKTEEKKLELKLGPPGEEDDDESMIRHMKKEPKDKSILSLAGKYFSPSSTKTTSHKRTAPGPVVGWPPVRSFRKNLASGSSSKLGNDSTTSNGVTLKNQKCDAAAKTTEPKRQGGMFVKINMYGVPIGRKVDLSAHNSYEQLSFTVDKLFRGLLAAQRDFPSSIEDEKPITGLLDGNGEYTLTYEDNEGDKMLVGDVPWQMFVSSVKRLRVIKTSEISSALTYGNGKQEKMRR

[3] = molecular target: T3, IAA19-FLucC (Arabidopsis, UniProt O24409 1-197)
T3 construct: Arabidopsis Aux/IAA protein IAA19; also called Aux/IAA-FLucC; source: Arabidopsis mesophyll protoplasts, transfected, in living cells; not shown: FLucC (firefly luciferase aa 394-550)
T3 sequence (looked up): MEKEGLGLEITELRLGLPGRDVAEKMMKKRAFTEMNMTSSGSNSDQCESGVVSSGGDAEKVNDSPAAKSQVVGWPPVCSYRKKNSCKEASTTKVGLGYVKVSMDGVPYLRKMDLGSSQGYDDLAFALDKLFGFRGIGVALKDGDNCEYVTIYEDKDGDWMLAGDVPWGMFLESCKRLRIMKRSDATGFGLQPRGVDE

[4] = molecular target: T4, IAA28-FLucC (Arabidopsis, UniProt Q9XFM0 1-175)
T4 construct: Arabidopsis Aux/IAA protein IAA28; also called Aux/IAA-FLucC; source: Arabidopsis mesophyll protoplasts, transfected, in living cells; not shown: FLucC (firefly luciferase aa 394-550)
T4 sequence (looked up): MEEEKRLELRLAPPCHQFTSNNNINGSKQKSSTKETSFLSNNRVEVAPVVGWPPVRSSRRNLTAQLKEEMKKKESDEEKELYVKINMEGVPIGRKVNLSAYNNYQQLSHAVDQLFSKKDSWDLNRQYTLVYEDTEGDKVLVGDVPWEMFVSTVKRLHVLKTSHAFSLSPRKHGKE

[5] = molecular target: T5, ARF4 C-terminal domain (CTD)-FLucC (Arabidopsis, UniProt Q9ZTX9 665-788)
T5 construct: Arabidopsis auxin response factor 4, C-terminal dimerization domain (CTD); In the ARF-ARF tests the same CTD stood both as ARFCTD-FLucC and as ARFCTD-FLucN; one molecule for both; also called ARF4CTD-FLucC; ARFCTD-FLucC; source: Arabidopsis mesophyll protoplasts, transfected, in living cells (SFLC) and in lysate (co-IP); not shown: FLucC (firefly luciferase aa 394-550)
T5 sequence (looked up): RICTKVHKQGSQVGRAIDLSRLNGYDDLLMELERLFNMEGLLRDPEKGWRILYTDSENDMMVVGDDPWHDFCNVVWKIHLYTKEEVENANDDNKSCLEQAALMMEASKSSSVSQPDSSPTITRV

Measured: relative luciferase activity (standardised against ARF5CTD-FLucC + IAA28-FLucN)

B1: MYB30-FLucN (natural protein, UniProt Q9SCU7 1-323, looked up)
chain: MVRPPCCDKGGVKKGPWTPEEDIILVTYIQEHGPGNWRAVPTNTGLLRCSKSCRLRWTNYLRPGIKRGNFTEHEEKMIVHLQALLGNRWAAIASYLPQRTDNDIKNYWNTHLKKKLNKVNQDSHQELDRSSLSSSPSSSSANSNSNISRGQWERRLQTDIHLAKKALSEALSPAVAPIITSTVTTTSSSAESRRSTSSASGFLRTQETSTTYASSTENIAKLLKGWVKNSPKTQNSADQIASTEVKEVIKSDDGKECAGAFQSFSEFDHSYQQAGVSPDHETKPDITGCCSNQSQWSLFEKWLFEDSGGQIGDILLDENTNFF
notes: transcription factor MYB30, the unrelated protein used as negative control; source: Arabidopsis mesophyll protoplasts, transfected, in living cells; not shown: FLucN (firefly luciferase aa 1-398)
< 0.1: all assays above
